From the supplement of paper PMC9112550, “Optimization of the antimicrobial peptide Bac7 by deep mutational scanning” (BMC Biology, 2022)

System: Escherichia coli TOP10
Assay: shrunken log2 fold change of peptide-encoding DNA abundance (4.5 h post-induction vs induction); higher = less antimicrobial activity (less host growth inhibition)
Conditions: time post-induction: 4.5 h; library: site-saturation at positions 5, 18, 19, 20
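Note: peptides expressed intracellularly from a pBAD plasmid library in pooled LB shake-flask culture, induced with 0.3% L-arabinose, DNA abundance read by NGS, three biological replicates, DESeq2 with apeglm shrinkage.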

RRIRYRPPRLPRPRPRPVTYPRP
shrunken log2 fold change: -0.41

RRIRKRPPRLPRPRPRPDDWPRP
shrunken log2 fold change: 1.73

RRIRHRPPRLPRPRPRPPRHPRP
shrunken log2 fold change: 0.231

RRIRPRPPRLPRPRPRPCIYPRP
shrunken log2 fold change: -0.536

RRIRPRPPRLPRPRPRPEKDPRP
shrunken log2 fold change: -0.0428

RRIRVRPPRLPRPRPRPDGDPRP
shrunken log2 fold change: -0.339

RRIRKRPPRLPRPRPRPHRAPRP
shrunken log2 fold change: 0.515

RRIRYRPPRLPRPRPRPPLLPRP
shrunken log2 fold change: -0.385

RRIRSRPPRLPRPRPRPRWFPRP
shrunken log2 fold change: 0.0783

RRIRGRPPRLPRPRPRPYYMPRP
shrunken log2 fold change: -0.238

RRIRQRPPRLPRPRPRPDYTPRP
shrunken log2 fold change: -0.0424

RRIRDRPPRLPRPRPRPNWHPRP
shrunken log2 fold change: 0.144

RRIRIRPPRLPRPRPRPPKNPRP
shrunken log2 fold change: -0.159

RRIRLRPPRLPRPRPRPMKKPRP
shrunken log2 fold change: 0.0162

RRIRFRPPRLPRPRPRPASWPRP
shrunken log2 fold change: 0.026

RRIRTRPPRLPRPRPRPMNQPRP
shrunken log2 fold change: -0.941

RRIRLRPPRLPRPRPRPRNHPRP
shrunken log2 fold change: -0.44

RRIRSRPPRLPRPRPRPQNSPRP
shrunken log2 fold change: -0.207

RRIRQRPPRLPRPRPRPCKNPRP
shrunken log2 fold change: -0.409

RRIRVRPPRLPRPRPRPVFGPRP
shrunken log2 fold change: -0.0383

RRIRTRPPRLPRPRPRPRCQPRP
shrunken log2 fold change: 0.113

RRIRKRPPRLPRPRPRPMVPPRP
shrunken log2 fold change: -0.043

RRIRCRPPRLPRPRPRPHHNPRP
shrunken log2 fold change: -0.901

RRIRTRPPRLPRPRPRPDPQPRP
shrunken log2 fold change: -0.0945

RRIRIRPPRLPRPRPRPSGEPRP
shrunken log2 fold change: -0.246

RRIRPRPPRLPRPRPRPVWRPRP
shrunken log2 fold change: 0.516

RRIRERPPRLPRPRPRPVIMPRP
shrunken log2 fold change: -0.458

RRIRTRPPRLPRPRPRPTCHPRP
shrunken log2 fold change: -0.405

RRIRKRPPRLPRPRPRPKAAPRP
shrunken log2 fold change: 0.142

RRIRTRPPRLPRPRPRPPKKPRP
shrunken log2 fold change: 0.0946

RRIRHRPPRLPRPRPRPGNVPRP
shrunken log2 fold change: -0.36

RRIRPRPPRLPRPRPRPPDGPRP
shrunken log2 fold change: 0.067

RRIRTRPPRLPRPRPRPMQVPRP
shrunken log2 fold change: -0.21

RRIRQRPPRLPRPRPRPMQAPRP
shrunken log2 fold change: 0.116

RRIRGRPPRLPRPRPRPLFDPRP
shrunken log2 fold change: 0.548

RRIRMRPPRLPRPRPRPPRLPRP
shrunken log2 fold change: 1.06

RRIRSRPPRLPRPRPRPDSSPRP
shrunken log2 fold change: -0.418

RRIRWRPPRLPRPRPRPSNNPRP
shrunken log2 fold change: -0.446

RRIRMRPPRLPRPRPRPMWRPRP
shrunken log2 fold change: 0.00628

RRIRNRPPRLPRPRPRPPDAPRP
shrunken log2 fold change: 0.0157

RRIRRRPPRLPRPRPRPESMPRP
shrunken log2 fold change: 0.358

RRIRKRPPRLPRPRPRPITMPRP
shrunken log2 fold change: -0.122

RRIRTRPPRLPRPRPRPQQPPRP
shrunken log2 fold change: 0.153

RRIRARPPRLPRPRPRPLQCPRP
shrunken log2 fold change: 0.049

RRIRMRPPRLPRPRPRPTTMPRP
shrunken log2 fold change: 0.558

RRIRWRPPRLPRPRPRPWFRPRP
shrunken log2 fold change: -0.251

RRIRDRPPRLPRPRPRPDLFPRP
shrunken log2 fold change: 0.0296

RRIRKRPPRLPRPRPRPAIVPRP
shrunken log2 fold change: 0.0885

RRIRARPPRLPRPRPRPFAYPRP
shrunken log2 fold change: -0.289

RRIRKRPPRLPRPRPRPVIPPRP
shrunken log2 fold change: -0.26

RRIRQRPPRLPRPRPRPCDAPRP
shrunken log2 fold change: -0.027

RRIRCRPPRLPRPRPRPREVPRP
shrunken log2 fold change: 0.415

RRIRNRPPRLPRPRPRPIEGPRP
shrunken log2 fold change: -0.0908

RRIRARPPRLPRPRPRPYIMPRP
shrunken log2 fold change: -0.675

RRIRQRPPRLPRPRPRPAQPPRP
shrunken log2 fold change: 0.187

RRIRSRPPRLPRPRPRPNPYPRP
shrunken log2 fold change: -0.558

RRIRARPPRLPRPRPRPHFKPRP
shrunken log2 fold change: 0.00608

RRIRDRPPRLPRPRPRPSINPRP
shrunken log2 fold change: -0.113

RRIRERPPRLPRPRPRPTCWPRP
shrunken log2 fold change: 0.0288

RRIRYRPPRLPRPRPRPVPIPRP
shrunken log2 fold change: -0.297

RRIRSRPPRLPRPRPRPKTNPRP
shrunken log2 fold change: 0.00294

RRIRMRPPRLPRPRPRPYLGPRP
shrunken log2 fold change: -0.331

RRIRERPPRLPRPRPRPRMQPRP
shrunken log2 fold change: -0.0907

RRIRKRPPRLPRPRPRPHMPPRP
shrunken log2 fold change: -0.175

RRIRSRPPRLPRPRPRPNNCPRP
shrunken log2 fold change: -0.186

RRIRKRPPRLPRPRPRPPIVPRP
shrunken log2 fold change: -0.121

RRIRCRPPRLPRPRPRPTVRPRP
shrunken log2 fold change: 0.128

RRIRYRPPRLPRPRPRPTYCPRP
shrunken log2 fold change: -0.165

RRIRWRPPRLPRPRPRPVAIPRP
shrunken log2 fold change: -0.0829

RRIRIRPPRLPRPRPRPKCYPRP
shrunken log2 fold change: -0.00654

RRIRERPPRLPRPRPRPLERPRP
shrunken log2 fold change: -0.191

RRIRQRPPRLPRPRPRPDRLPRP
shrunken log2 fold change: -0.0692

RRIRKRPPRLPRPRPRPDFCPRP
shrunken log2 fold change: 0.129

RRIRIRPPRLPRPRPRPGFPPRP
shrunken log2 fold change: 0.186

RRIRTRPPRLPRPRPRPYCKPRP
shrunken log2 fold change: -0.129

RRIRCRPPRLPRPRPRPDHWPRP
shrunken log2 fold change: -0.109

RRIRPRPPRLPRPRPRPCDGPRP
shrunken log2 fold change: 0.0661

RRIRARPPRLPRPRPRPQDSPRP
shrunken log2 fold change: -0.0459

RRIRSRPPRLPRPRPRPHFMPRP
shrunken log2 fold change: -0.48

RRIRFRPPRLPRPRPRPFDPPRP
shrunken log2 fold change: -0.135

RRIRNRPPRLPRPRPRPVCKPRP
shrunken log2 fold change: -0.0239

RRIRNRPPRLPRPRPRPQIFPRP
shrunken log2 fold change: -0.27

RRIRERPPRLPRPRPRPWHAPRP
shrunken log2 fold change: 0.421

RRIRQRPPRLPRPRPRPCWRPRP
shrunken log2 fold change: -0.0087

RRIRCRPPRLPRPRPRPISSPRP
shrunken log2 fold change: -0.0694

RRIRPRPPRLPRPRPRPHAHPRP
shrunken log2 fold change: 0.00207

RRIRVRPPRLPRPRPRPIPIPRP
shrunken log2 fold change: -0.106

RRIRKRPPRLPRPRPRPDEWPRP
shrunken log2 fold change: 0.268

RRIRCRPPRLPRPRPRPTREPRP
shrunken log2 fold change: 0.684

RRIRFRPPRLPRPRPRPCYKPRP
shrunken log2 fold change: -0.228

RRIRMRPPRLPRPRPRPREGPRP
shrunken log2 fold change: 0.79
